{
  "source": "patent US20080234198A1",
  "about": "(Eli Lilly, published 2008)",
  "target": "T1, human VPAC2 receptor (human), P41587",
  "T1 chain": "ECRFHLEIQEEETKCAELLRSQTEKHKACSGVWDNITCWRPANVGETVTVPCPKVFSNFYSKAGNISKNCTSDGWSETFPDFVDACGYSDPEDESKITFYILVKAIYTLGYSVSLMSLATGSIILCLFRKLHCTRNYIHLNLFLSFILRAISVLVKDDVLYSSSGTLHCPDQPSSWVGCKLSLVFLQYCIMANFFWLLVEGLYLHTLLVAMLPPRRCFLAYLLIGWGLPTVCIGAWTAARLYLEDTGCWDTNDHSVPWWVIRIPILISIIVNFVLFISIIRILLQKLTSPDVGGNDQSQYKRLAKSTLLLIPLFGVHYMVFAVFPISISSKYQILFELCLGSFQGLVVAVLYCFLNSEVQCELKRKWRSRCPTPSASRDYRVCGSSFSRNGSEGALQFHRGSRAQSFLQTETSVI",
  "assay": "filter binding, VPAC2 cell membranes, displacement of 125I-VIP",
  "conditions": "remark: other sources report otherwise",
  "data": [
    {"binder": "HSDAVFTEQYTXLRXQXAAXXYLQSIXXGGPSSGAPPPS (here or on the partner: C6-HSDAVFTEQY(OMe)TOrnLRAibQK(WPEG40K)AAAibOrnYLQSIOrnOrnGGPSSGAPPPS-NH2)", "note": "[P533]", "values": [
      {"measurement": "IC50", "result": 959, "unit": "nM"}
    ]}
  ]
}
